US5488099, “Multifunctional chimeric neurotrophic factors” (dated 1996)
Where a chain is given by its changes, count along the chain named. Names and notes keep the numbering of the source.

Columns and labels:
[1] = biological target: TrkA of NGF-responsive neurons from embryonic chick sympathetic ganglia (chick)
[2] = biological target: TrkB of BDNF-responsive neurons from embryonic chick nodose ganglia (chick)
TrkB [3] = biological target: T1, TrkB (Rattus norvegicus (Rat), UniProt Q63604); assay: competition with 125I-BDNF on rtrkB-3T3 cells, COS conditioned medium, relative binding from IC50
Description: (§1) Purified mouse NGF and BDNF were labeled with ^125I by the lactoperoxidase method to an average specific activity of 1×10^8 cpm/μg. For the labeling of BDNF, the modifications described by Rodriguez-Tebar et al. ([Rodriguez-Tebar, 1992]) were used. NIH3T3 fibroblasts expressing TrkA, TrkB or TrkC were used at 2 to 1–×10^6 cells/ml. Steady state binding was measured in competition assays performed at 4° C. using 1.5×10^-9M ^125I-BDNF and serial dilutions of conditioned media containing equivalent amounts of wt or mutated NGF protein. All components were added at the same time and the cells were collected by centrifugation after equilibrium was reached (90–120 minutes incubation). Cell pellets were then counted in a gamma counter. […] Nonspecific binding was measured in a parallel incubation to which 300 to 1000-fold molar excess of unlabelled purified factor was added. All results were corrected for this nonspecific binding, which was less than 10% (for NGF) or 30% (for BDNF) of total binding. The concentration of each chimeric, mutant and wild type molecule that gave 50% binding (IC$50$) was determined, and relative binding was calculated using the relationship:(mutant IC$50$/wild type IC$50$)X 100.

[4] = biological target: TrkB (Rattus norvegicus (Rat)) (UniProt Q63604)
TrkA [5] = biological target: T2, TrkA (Rattus norvegicus (Rat), UniProt P35739); assay: competition with 125I-NGF on rtrkA-3T3 cells
Description: (§2) FIG. 2A–D. TrkA receptor binding, receptor phosphorylation and biological activity of wild-type (wt) and chimeric molecules (see SEQ. ID. NOS. 1 and 2 for all chimeric constructions). […] Each point represents the mean of triplicate determinations. Standard deviation was at or generally below ±10%. (B) and (C) Tyrosine phosphorylation of TrkA receptors stimulated by wt NGF, wt BDNF and chimeric molecules. rtrkA-3T3 cells were treated with 100 ng/ml of the indicated recombinant proteins and assayed for tyrosine phosphorylation. Media from mock-transfected COS cells was used as negative control (CONTROL). Arrowhead indicates the migration of phosphorylated TrkA (p140^trk). The faster migrating band correspond to constituitively phosphorylated p140^trk precursors ([Kaplan, 1991]). (D) Serial dilutions of transfected COS cell conditioned medium containing equal amounts of wt and chimeric factors were assayed for their ability to stimulate neurite outgrowth from E8 chick sympathetic ganglia. Data from three determinations varied by ±20% of the average values reported here. Key symbols as in (A).
Purified mouse NGF and BDNF were labeled with ^125I by the lactoperoxidase method to an average specific activity of 1×10^8 cpm/μg. For the labeling of BDNF, the modifications described by Rodriguez-Tebar et al. ([Rodriguez-Tebar, 1992]) were used. […] Cell pellets were then counted in a gamma counter.

TrkA [6] = biological target: T2, TrkA; assay: competition with 125I-NGF on rtrkA-3T3 cells, COS conditioned medium, relative binding from IC50
Description: as §2
Purified mouse NGF and BDNF were labeled with ^125I by the lactoperoxidase method to an average specific activity of 1×10^8 cpm/μg. For the labeling of BDNF, the modifications described by Rodriguez-Tebar et al. ([Rodriguez-Tebar, 1992]) were used. NIH3T3 fibroblasts expressing TrkA, TrkB or TrkC were used at 2 to 1–×10^6 cells/ml. […] All components were added at the same time and the cells were collected by centrifugation after equilibrium was reached (90–120 minutes incubation). Cell pellets were then counted in a gamma counter.

TrkB [7] = biological target: T1, TrkB; assay: competition with 125I-BDNF on rtrkB-3T3 cells
Description: as §1

TrkA [8] = biological target: T2, TrkA; assay: competition with 125I-NGF on rtrkA-3T3 cells; remark: listed apart in the source
Description: as §1, with “Steady state binding was measured in competition assays performed at 4° C. using 1.5×10^-9M ^125I-BDNF and serial dilutions of conditioned media containing equivalent amounts of wt or mutated NGF protein.” left out
Figure 3A: FIG. 3A&B. NGF variable regions I, IV and V partially restore TrkA binding and biological activity of the NH_2+I+III+IV+V chimeric molecule (see SEQ. ID. NOS. 1 and 2 for all chimera construction). […] Each point represents the mean of triplicate determinations.

Chain of TrkB of BDNF-responsive neurons from embryonic chick nodose ganglia (chick) (Q91987 whole entry): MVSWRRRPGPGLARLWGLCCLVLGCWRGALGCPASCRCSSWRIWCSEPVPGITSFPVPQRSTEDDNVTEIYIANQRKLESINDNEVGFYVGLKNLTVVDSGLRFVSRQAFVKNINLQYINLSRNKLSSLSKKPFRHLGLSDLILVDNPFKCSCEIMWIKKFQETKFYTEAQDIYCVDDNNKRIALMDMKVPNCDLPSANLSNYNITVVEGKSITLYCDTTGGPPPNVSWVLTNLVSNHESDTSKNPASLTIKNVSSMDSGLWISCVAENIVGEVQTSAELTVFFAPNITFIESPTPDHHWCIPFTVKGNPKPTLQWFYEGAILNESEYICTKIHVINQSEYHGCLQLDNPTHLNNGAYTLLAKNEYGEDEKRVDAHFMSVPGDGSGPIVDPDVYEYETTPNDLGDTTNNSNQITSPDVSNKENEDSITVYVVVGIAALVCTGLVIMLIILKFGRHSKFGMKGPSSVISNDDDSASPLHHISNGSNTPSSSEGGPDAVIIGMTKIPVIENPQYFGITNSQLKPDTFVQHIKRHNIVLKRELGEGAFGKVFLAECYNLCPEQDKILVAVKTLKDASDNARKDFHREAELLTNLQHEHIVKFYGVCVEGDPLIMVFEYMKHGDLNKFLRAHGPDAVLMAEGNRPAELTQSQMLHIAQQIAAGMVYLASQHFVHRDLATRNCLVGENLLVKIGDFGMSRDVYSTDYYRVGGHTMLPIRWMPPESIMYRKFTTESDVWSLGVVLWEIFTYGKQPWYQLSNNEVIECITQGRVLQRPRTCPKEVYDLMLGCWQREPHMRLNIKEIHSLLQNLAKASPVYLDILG

B1: wild-type brain-derived neurotrophic factor (ligand)
chain: HSDPARRGELSVCDSISEWVTAADKKTAVDMSGGTVTVLEKVPVSKGQLKQYFYETKCNPMGYTKEGCRGIDKRHWSNQCRTTQSYVRALTMDSKKRIGWRFIRIDTSCVCTLTIKRGR
Biological Activity % of wild type (neurite outgrowth from explants of embryonic sympathetic ganglia) (% of wild type) [1]: < 0.2
Biological Activity % of wild type (maximal cell survival of dissociated embryonic nodose neurons) (% of wild type) [2]: 100
Receptor Binding % of wild type (TrkB [3]): 100 % of wild type
EC50 of TrkB tyrosine phosphorylation [4]: 5 ng/mL
binding result (TrkA [5]): no binding (tested: <0,2 % of wild type)
Receptor Binding % of wild type (TrkA [6]): < 0.2 % of wild type

B2: wild-type rat nerve growth factor (ligand)
chain: SSTHPVFHMGEFSVCDSVSVWVGDKTTATDIKGKEVTVLGEVNINNSVFKQYFFETKCRAPNPVESGCRGIDSKHWSNYCTTTHTFVKALTTDDKQAAWRFIRIDTACVCVLSRKAARRG
Biological Activity % of wild type (neurite outgrowth from explants of embryonic sympathetic ganglia) (% of wild type) [1]: 100
Biological Activity % of wild type (maximal cell survival of dissociated embryonic nodose neurons) (% of wild type) [2]: < 5
Receptor Binding % of wild type (TrkB [3]): < 0.2 % of wild type
binding result (TrkB [7]): no binding (tested: <0,2 % of wild type)
Receptor Binding % of wild type (TrkA [6]): 100 % of wild type

B3: NGF mutant I31A (ligand)
chain: B2 chain with I31A
Biological Activity % of wild type (neurite outgrowth from explants of embryonic sympathetic ganglia) (% of wild type) [1]: 25
Receptor Binding % of wild type (TrkA [6]): 20 % of wild type
fold reduction in receptor binding against wt NGF (TrkA [8]): 4 fold
